The target in the experiment is Keap1 labeled with Cy3 (UniProt Q14145). Put plainly: MST.

As a reminder, the Kd is the free concentration of one partner at which half of the binding sites on the other are occupied at equilibrium, for simple one-to-one binding. The low end stands for higher affinity, the high end for lower affinity.

Chain of UniProt Q14145 (Q14145 whole entry): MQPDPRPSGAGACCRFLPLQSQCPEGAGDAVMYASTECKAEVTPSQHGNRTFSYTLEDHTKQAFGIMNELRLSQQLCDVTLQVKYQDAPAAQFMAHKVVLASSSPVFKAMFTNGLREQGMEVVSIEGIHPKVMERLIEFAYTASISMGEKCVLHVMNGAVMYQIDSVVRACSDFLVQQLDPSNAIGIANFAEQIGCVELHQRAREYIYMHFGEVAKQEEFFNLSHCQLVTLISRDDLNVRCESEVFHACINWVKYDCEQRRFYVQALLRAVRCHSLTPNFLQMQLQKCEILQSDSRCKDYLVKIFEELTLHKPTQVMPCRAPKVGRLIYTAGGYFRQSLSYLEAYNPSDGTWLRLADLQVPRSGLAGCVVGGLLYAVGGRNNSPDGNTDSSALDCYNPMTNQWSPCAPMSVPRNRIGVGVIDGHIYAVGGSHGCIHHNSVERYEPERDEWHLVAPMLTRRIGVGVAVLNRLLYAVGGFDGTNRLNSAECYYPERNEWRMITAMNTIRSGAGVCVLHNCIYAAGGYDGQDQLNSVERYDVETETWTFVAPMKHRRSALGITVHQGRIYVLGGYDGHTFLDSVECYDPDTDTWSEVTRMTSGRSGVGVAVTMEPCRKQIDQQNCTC

“MNT0, control modular nanotransporter lacking the antiKeap1 monobody fragment” returned a Kd of 93 nM. Substance “free translocation domain of diphtheria toxin, DTox (from UniProt P00588 33-567) (domain or fragment)” yielded an equilibrium dissociation constant (Kd) above 1000 nM.

The record behind these values is paper PMC10748074.
